From patent publication US20180251563A1 (SUBDOMAIN, published 2018)
Where a chain is given by its changes, count along the chain named.

B1: SEQ ID NO 120 (designed binder)
chain: MGSWYEFENRLEAIEERLWALGGSEAELAAFEKEIAAFESELQAYKGKGNPEVEMLREEAAFIRDWLQAYRHN
B2: SEQ ID NO 122 (designed binder)
chain: B1 chain with Y5I, N9D, E16D, W19F, M55W, E58Q, F62E, D65L, W66M
B3: SEQ ID NO 106 (designed binder)
chain: MGSWHEFDQRLWAIEERLWALGGSEAELAAFEKEIAAFESELQAYKGKGNPEVETLRLYAALIRHDLQAYRHN
B4: SEQ ID NO 107 (designed binder)
chain: B3 chain with H5I, D8E, Q9S, E16D, W19L, T55F, Y59E, L62D, H65E
B5: SEQ ID NO 108 (designed binder)
chain: B1 chain with E12G, E15G, E16D, M55W, E58D, F62Y, D65A, W66V
B6: SEQ ID NO 109 (designed binder)
chain: MGSWNEFYDRLSAIYFRLQALGGSEAELAAFEKEIAAFESELQAYKGKGNPEVEHLRWYAADIRMILQAYRHN
B7: SEQ ID NO 116 (designed binder)
chain: B6 chain with N5V, S12H, Q19L, H55D, M65L, I66V
B8: SEQ ID NO 117 (designed binder)
chain: B6 chain with N5Y, D9N, F16A, H55D, M65Y, I66M
B9: SEQ ID NO 113 (designed binder)
chain: MGSWFEFWDRLDAIEDRLYALGGSEAELAAFEKEIAAFESELQAYKGKGNPEVEELRDEAAWIRGTLQAYRHN
B10: SEQ ID NO 118 (designed binder)
chain: B9 chain with D9G, D12E, D16S, Y19K, D58E, E59H, G65A, T66Y
B11: SEQ ID NO 119 (designed binder)
chain: MGSWTEFSIRLEAIYDRLVALGGSEAELAAFEKEIAAFESELQAYKGKGNPEVEVLRTYAANIRHELQAYRHN
B12: SEQ ID NO 121 (designed binder)
chain: B11 chain with T5Y, S8V, Y15E, V19W, T58W, N62D
B13: SEQ ID NO 126 (designed binder)
chain: B11 chain with T5H, S8G, I9V, E12D, V19M, V55F, T58Q, Y59A, H65S
B14: SEQ ID NO 127 (designed binder)
chain: B11 chain with T5Y, I9M, E12D, V19M, V55Q, T58G, H65N
B15: SEQ ID NO 60 (designed binder)
chain: MGSWIEFEDRLDAITDRLWALGGSEAELAEFEHQIAFFEEDLQWYKGKGNPEVEALHMEAEAIMEELGAYRHN
B16: SEQ ID NO 61 (designed binder)
chain: MGSWVEFEYRLDAISDRLWALGGSEAELAFFENEIASFESDLQFYKGKGNPEVEALMFEAEAIDDELHAYRHN
B17: SEQ ID NO 62 (designed binder)
chain: MGSWYEFEDRLAAIEARLWALGGSEAELADFEEEIAYFEHGLQWYKGKGNPEVEALESEAMAIIDELHAYRHN
B18: SEQ ID NO 63 (designed binder)
chain: MGSWYEFEERLDAIEDRLIALGGSEAELAIFEDIIAFFEQDLQYYKGKGNPEVEALEMEAEAISIELDAYRHN
B19: SEQ ID NO 64 (designed binder)
chain: MGSWWEFEDRLWAIDRRLMALGGSEAELAVFEQMIAHFEQILQVYKGKGNPEVEALHFEAHAIGMELAAYRHN

Molecular target: T1, CD123 (target of Example 19) (Homo sapiens (Human), UniProt P26951 19-305, limits assumed)
T1 sequence: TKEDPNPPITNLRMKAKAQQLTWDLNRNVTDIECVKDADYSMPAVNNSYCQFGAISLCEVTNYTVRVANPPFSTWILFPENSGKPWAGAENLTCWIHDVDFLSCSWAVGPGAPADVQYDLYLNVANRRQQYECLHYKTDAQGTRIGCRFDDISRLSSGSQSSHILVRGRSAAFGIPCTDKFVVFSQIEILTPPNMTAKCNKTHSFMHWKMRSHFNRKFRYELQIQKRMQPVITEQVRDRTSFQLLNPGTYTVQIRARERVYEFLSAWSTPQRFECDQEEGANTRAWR
Test: library selection; assay not described

Binding result, binds:
B1, B2, B3, B4, B5, B6, B7, B8, B9, B10, B11, B12, B13, B14, B15, B16, B17, B18, B19
